Data taken from PMC6868385.

Target: GFP-tagged BLM (Bloom helicase) (human) (UniProt P54132)
Assay: single-molecule fluorescence intensity

- stoichiometry N (molecules of GFP–BLM per complex): 3.1
Substance: GFP-tagged BLM (Bloom helicase), P54132 1-1417 (enzyme; other documents disagree on this pair)
